Test results from patent US20220257796A1.

Each substance was assayed against CD46 (human) (UniProt P15529) (assay: Kd of fiber knob to CD46, Table 1 (method not given)).
UniProt P15529, sequence (P15529 35-343 limits assumed): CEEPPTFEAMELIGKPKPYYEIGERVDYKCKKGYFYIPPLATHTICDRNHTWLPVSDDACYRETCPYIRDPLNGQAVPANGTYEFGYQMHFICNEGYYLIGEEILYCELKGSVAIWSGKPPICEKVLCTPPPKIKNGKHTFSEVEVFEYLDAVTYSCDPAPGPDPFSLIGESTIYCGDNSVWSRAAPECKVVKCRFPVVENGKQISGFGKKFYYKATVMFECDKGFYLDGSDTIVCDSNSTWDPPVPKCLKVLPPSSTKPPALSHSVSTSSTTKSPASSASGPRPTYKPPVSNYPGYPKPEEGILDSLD

“Ad35 fiber knob mutant B5: Ile256Leu (from UniProt P46977)” and “Ad35 fiber knob mutant B4: Thr245Ala (from UniProt Q8NHJ6)” are within 1.5-fold of each other in Kd: 11 nM for the first, 7.64 nM for the second.

Ad11 (fiber knob) (from UniProt P33681) and “Ad35 fiber knob mutant A8: Ile192Val Ile256Val (from UniProt Q92854)” are within 1.5-fold of each other in Kd: 11.2 nM for the first, 13.7 nM for the second.
